How the values were obtained:
cyno GPRC5D = target: T1, cyno GPRC5D (cyno, UniProt Q9NZD1 1-343 (human entry)); experiment: cell-based or functional assay
T1 chain: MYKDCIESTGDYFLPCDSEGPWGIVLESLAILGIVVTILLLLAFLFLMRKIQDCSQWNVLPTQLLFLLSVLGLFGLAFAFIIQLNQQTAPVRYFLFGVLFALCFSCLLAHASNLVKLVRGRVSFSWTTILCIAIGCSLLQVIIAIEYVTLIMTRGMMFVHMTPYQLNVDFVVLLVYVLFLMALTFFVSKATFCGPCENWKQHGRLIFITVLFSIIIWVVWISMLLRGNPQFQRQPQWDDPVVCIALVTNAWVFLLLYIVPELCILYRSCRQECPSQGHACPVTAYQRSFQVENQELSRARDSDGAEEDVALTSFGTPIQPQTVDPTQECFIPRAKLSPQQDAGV

human GPRC5D [1] = target: T2, human GPRC5D (human, UniProt Q9NZD1 1-345); experiment: FACS, MM1R, H929 and human GPRC5D HEK293 cells
T2 construct: on transfected HEK293/RBL cells or endogenous on myeloma cells (H929, MM1R, OPM2, LP1, JIM3, patient plasma cells); also called G protein-coupled receptor class C group 5 member D; hGPRC5D
T2 sequence (Q9NZD1 whole entry): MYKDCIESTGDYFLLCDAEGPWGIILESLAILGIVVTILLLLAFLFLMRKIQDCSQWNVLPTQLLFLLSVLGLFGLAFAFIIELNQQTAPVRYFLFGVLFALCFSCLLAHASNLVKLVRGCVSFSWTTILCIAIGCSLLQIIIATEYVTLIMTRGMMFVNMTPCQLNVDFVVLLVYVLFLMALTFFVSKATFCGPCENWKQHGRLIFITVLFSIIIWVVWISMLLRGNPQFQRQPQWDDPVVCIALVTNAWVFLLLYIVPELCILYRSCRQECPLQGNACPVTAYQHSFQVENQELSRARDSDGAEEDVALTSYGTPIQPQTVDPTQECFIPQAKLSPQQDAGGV

human GPRC5D [2] = target: T2, human GPRC5D; experiment: FACS titration, human GPRC5D HEK293 cells
human GPRC5D [3] = target: T2, human GPRC5D; experiment: FACS, GPRC5D+ MM1.R cells
Description: The binding affinities of the GPRC5D antibodies on GPRC5D⁺ human MM cell line (MM1.R, purchased from ATCC (American Type Culture Collection)) were measured using FACS.
Binding is expressed as normalized geometrical mean fluorescence intensity as determined by FACS. Graphing and fitting of data were done in GraphPad Prism 6 using nonlinear regression with variable slope (four parameters) and least square fit method.

B1: GCDB45 (bispecific antibody, IgG4, V domains shown)
VH 1: EVQLVQSGAEVKKPGESLKISCKGSGYSFTSYWIGWVRQMPGKGLEWMGIIYPGDSDTRYSPSFQGQVTISADKSISTAYLQWSSLKASDTAMYYCARIGFYGRSFRIFDYWGQGTLVTVSS
VL 1: EIVLTQSPATLSLSPGERATLSCRASQSVSSYLAWYQQKPGQAPRLLIYDASNRATGIPARFSGSGSGTDFTLTISSLEPEDFAVYYCQQRSNWPLTFGQGTKVEIK
VH 2: EVQLVESGGGLVQPGGSLRLSCAASGFTFNTYAMNWVRQAPGKGLEWVARIRSKYNNYATYYAASVKGRFTISRDDSKNSLYLQMNSLKTEDTAVYYCARHGNFGNSYVSWFAYWGQGTLVTVSS
VL 2: QTVVTQEPSLTVSPGGTVTLTCRSSTGAVTTSNYANWVQQKPGQAPRGLIGGTNKRAPGTPARFSGSLLGGKAALTLSGVQPEDEAEYYCALWYSNLWVFGGGTKLTVL
notes: IgG4-PAA bispecific; also called GC5B332 x CD3B219
T cell mediated target cell killing, Cyno GPRC5D EC50 (cyno GPRC5D): 2.82 nM
binding result (human GPRC5D [1]): binds

B2: GCDB44 (bispecific antibody, IgG4, V domains shown)
VH 1: not shown
VL 1: B1 VL 1
VH 2: B1 VH 2
VL 2: B1 VL 2
notes: IgG4-PAA bispecific; also called GC5B320 x CD3B219
binding result (human GPRC5D [2]): binds

B3: GC5B602 (antibody, IgG1, V domains shown)
VH: QVQLVQSGAEVKKPGASVKVSCKASGYSFTGYTMNWVRQAPGQGLEWMGLINPYNGDTNYAQKLQGRVTMTTDTSTSTAYMELRSLRSDDTAVYYCARVALRVALDYWGQGTLVTVSS
VL: DIQMTQSPSSLSASVGDRVTITCKASQNVATHVGWYQQKPGKAPKRLIYSASYRYSGVPSRFSGSGSGTEFTLTISNLQPEDFATYYCQQYNRYPYTFGQGTKLEIK
notes: IgG1 form of GC5B515
EC50 (human GPRC5D [3]): 135 nM
